Reference: paper doi:10.1101/790931
No end group written: not given here.

T1: C-terminal domain of E. coli TolA (E. coli)
T1 sequence (P19934 whole entry, looked up): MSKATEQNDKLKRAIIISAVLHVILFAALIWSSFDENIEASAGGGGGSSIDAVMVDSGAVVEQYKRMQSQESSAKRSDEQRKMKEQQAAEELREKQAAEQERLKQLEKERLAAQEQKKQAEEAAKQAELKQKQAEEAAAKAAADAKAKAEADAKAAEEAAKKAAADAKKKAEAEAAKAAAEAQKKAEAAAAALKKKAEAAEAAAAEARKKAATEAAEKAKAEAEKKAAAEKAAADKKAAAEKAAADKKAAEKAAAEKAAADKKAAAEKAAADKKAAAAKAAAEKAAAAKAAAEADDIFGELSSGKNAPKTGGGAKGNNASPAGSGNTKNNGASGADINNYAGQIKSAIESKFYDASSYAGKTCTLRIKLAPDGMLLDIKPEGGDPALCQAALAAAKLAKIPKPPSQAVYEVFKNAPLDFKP


Key:
[1] = biological target: FITC-labelled P. aeruginosa TolB[22-34] peptide (Pseudomonas aeruginosa); experiment: fluorescence polarisation
[2] = biological target: T1, C-terminal domain of E. coli TolA (E. coli); experiment: ITC

C-terminal domain of Pseudomonas aeruginosa TolA (TolA^224-347), sequence (P50600 224-347): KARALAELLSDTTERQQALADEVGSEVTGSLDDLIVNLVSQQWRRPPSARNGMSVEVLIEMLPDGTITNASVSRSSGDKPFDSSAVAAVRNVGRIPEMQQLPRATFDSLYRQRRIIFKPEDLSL
P. aeruginosa TolA (residues 224-344) lacking its short C-terminal α-helix, sequence (P50600 224-344): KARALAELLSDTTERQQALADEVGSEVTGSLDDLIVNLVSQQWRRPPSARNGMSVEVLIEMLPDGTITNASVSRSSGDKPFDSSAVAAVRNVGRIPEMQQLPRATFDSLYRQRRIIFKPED

Molecule	Kd [1] [µM]	koff [1] [s⁻¹]	kon [1] [M⁻¹ s⁻¹]	Kd [2] [µM]	dH [2] [kcal/mol]	stoichiometry N [2]
C-terminal domain of Pseudomonas aeruginosa TolA (TolA^224-347) (from UniProt P50600 224-347) (domain or fragment)	250	0.9	7400			
P. aeruginosa TolA (residues 224-344) lacking its short C-terminal α-helix (from UniProt P50600 224-344) (domain or fragment)	86	1.4	23800			
EVRIVIDSGVDS-NH2 [E. coli TolB peptide (residues 22-33)]				44	-3.79	0.56
